Measured values taken from the nanobody polyreactivity screen of Harvey et al. (2022).

Assay: yeast display, Sf9 membrane polyspecificity reagent, FACS + sequencing; frameworks hold sequencing errors
Summary of the method: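 Using colony PCR, genes from sorted yeast display clones were amplified, then sequenced on MiSeq at 2 × 250 and filtered by CDR length. The clones had been stained with 10% biotinylated, detergent-solubilized Sf9 membrane reagent for 1 hour at 4 °C and sorted by FACS into low and high (top ~1%) gates on anti-HA and streptavidin fluorescence. Polyreactivity labels come from the gate of origin.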

Sequence	polyreactivity (PSR sort gate)
QVQLVESGGGLVQAGGSLRLSCSASGSIFDAYAMGWYRQAPGKERELVAAITTGGGSTYYADSVKGRFTISRDNAKNTVYLQMNSLKPEDTAVYYCAAEGFATDGWWYYKAYDDWGQGTQVTVSS	low polyreactivity
RVQLVESGGGLVQAGGSLRLSCAASGSISQGNAMGWYRQAPGKERELVADIRWTSGRTYYADSVKGRFTISRDNAKNTVYLQMNSLKPEDTAVYYCAAYYVYYTPTLIDRDYWGQGNQVTVSS	low polyreactivity
QVQLVESGGGLVQAGGSLRLSCAASGFIIEVNAMGWYRQAPGKERELVARIDWSGGSTYYADSVKGRFTISRDNAKNTVYLQMNSLKPEDTAVYYCNADWTYADPNEYGYWGQGTQVTVSS	low polyreactivity
QVQLVESGGGLVQAGGSLRLSCAASGFTIRWYAMGWYRQAPGKERELVAAISSGGGSTYYADSVKGRFTISRDNAKNTVYLQMNSLKPEDTAVYYCNARIQYFEYRGYEYWGQGTQVTVSS	high polyreactivity
QDQLVESGGGLVQAGGSLRLICAASGYTFGHYVMGWYRQAPGKERELVAAITLSGGGTYYADSVKGRFTISRDNAKNTVYLQMNCLKPEDTAVYYCAAVGGEHAKKTYSRYKVDYWGQGTQVTVSS	low polyreactivity
QVQLVESGGGLVQAGGSLRLSCAASGRIFWQNAMGWYRQAPGKERELVAAISSRGGTTYYADSVKGRFTISRDNAKNTVYLQMNSLIPEDTAVYYCNAALLLRYRGFFTVAAYDYWGQGTQVTVSS	low polyreactivity
QVQLVESGGGLVQAGGSLRLSCAASGRIFRYYVMGWYRHAPGKEREFVASISGRGASTYYADSVKGRFTISRDNAKNTVYLLMNSLKPEDTAVYYCNADVWLLSYFPEYDYWGQGTQVTVSS	low polyreactivity
QVQLVESGGGLVQAGGSLRLSCAASGFTFRRYAMGWYRQAPGKERELVAAISNGGSTYYADSVKGRFTISRDNAKNTVYLQMNSLKPEDTAVYYCAADIYSYFWWPYYYWGQGTQVTVSS	high polyreactivity
QVQLVESGGGLVQAGGSLRLSCDASAYIFVYNVMGWYRQAHGKERELVAAITSGGSTNYADSVKGRFTISRDNAKNTVYLQMNSLKPEDTAVYYCNAQFDLTFRGTGDYWGQGTQVTVSS	low polyreactivity
QVQLVESGGGLVQAGGSLRLICAASGSTFYSYAMGWYRQVPGKERELVAAISRRGGSTYYADSVKGRFTISRDNAKNTVYLQMNSLKPEDTAVYYCAADWSRSSAEVDYWGQGTQVTVSS	high polyreactivity
QVQLVESGGGLVQAGGSLRLSCAASGSIFNSNAMGWYRQAPGKERELVAAITGSGGRTYYADSVKGRFTISRDNAKNTVYLQMNSLKPEDTAVYYCNAVTYSRRYAYYYWGQGTQVTVSS	high polyreactivity
QVQLVESGGGLVQAGGSLRLSCAASGRTFSYYAMGWYRQAPGKERELVARITYRGGRTYYADSVKGRFTISRDHAKNTVYLQMNSLKPEDTAVYYCNADAIYKRGGRDYWGQGTQVTVSS	high polyreactivity
QVQLVESGGGLVQAGGSLRLSCAASGIIFEYYDMGWYRQAPGKERELVAAIDSGGSTYYADSVKGRFTISRDNAKNTVYLQMNSLKPEDTAVYYCAAETVRYEWGESPAALFDYWGQGTQVTVSS	low polyreactivity
QVQLVESGGGLVQAGGSLRLSCAASGRSFGHYAMGWYRQAPGKERELVAAITTGGNTYYADSVKGRFTISRDNAKNTVYLQMNSLKPEDTAVYYCAKRGYPYKYKYWQVYAAYDYWGQGTQVTVSS	low polyreactivity
QVQLVESGGGLVQAGGSIRLSCAASGSIFEVNAMGWYRQAPGKERELVAGISNADSTNYADSVKGRFTISRDNAKNTVYLQMNSLKPEDTAVYYCATDLYRDPPKDLLGPEYDYWGQGTQVTVSS	low polyreactivity
QVQLVESGGGLVQAGGSLRLSCAASGSTFFYNVMGWYRQAPGKERELVAAITSSGGGTYYADSVKGRFTISRDNAKNTVYLQMNSLKPEDTAVYYCAKPVWLRDYRHGGRFGYWGQGTQVTVSS	low polyreactivity
QVQLVESGGGLVHAGGSLRLSCAASGRIFYVYAMGWYRQAPGKEREFVASISWSGGSTYYADSVKGRFTISRDNAKNTVYLQMNSLKPEDTAVYYCAARVVRYGYKYYYWGQCTQVTVSS	low polyreactivity
QFQLVESGGGLVQAGGSLRLSCPPSGSIFPGYAMGWSRQSPGKERELVATITWSGGSTYYADSVKGRFTISRDNAKNTVYLQLTSLKPEDTAVYYCNADTNWYYQLNYYGLYDYWGQGTQVTVSS	low polyreactivity
QVHLVESGGGLVQAGGSLRLSCAASGSIFYYNAMGWYRQAPGKERELVAAITSGDSTNYADSVKGRFTISRDNAKNTVYLQMNSLKPEDTAVYYCNTDGLVRNGPFYSWGQGTQVTVSS	low polyreactivity
QVQLVESGGGLVQAGGSLRLSCAASGRIIGGNAMGWYRPAPGKEREFVAAIRASGGSTHYADSVKGRFTISRDNAKNTVYLQMNSLKPEDTAVYYCNTYRARLGTTFIDYDYWGQGTQVTVSS	high polyreactivity
HVQLVESGGGLVQAGGSLRLSCAASGRIFPSNTMGWYRQAPGKERELVAAITRGDRTNYADSVKGRFTISRDNAKNTVYLQMNSLKPVDTAVYYCNARWGLPFGSGYYYWGQGTQVTVSS	low polyreactivity
QVQLVESGGGLVQAGGSLRLSCAASGRIFGGNTMGWYRQAPGKEREFVAAITQSGTRTYYADSVKGRFTISRDNAKNTVYLQRNSLKPEDTAVDYCAAEGYWYPYDYWRQGTQVTVSS	high polyreactivity
